Like-named read-outs stand apart in the source and are kept apart here.
What was measured:
[1] = rat, in vivo, 50 mg/kg
Description: (§1) Rats were administered, orally and by intracolonic instillation, dosing solutions of 1 mg/kg of interferon and no carrier.

[2] = In vivo interferon delivery in rats (serum interferon, ELISA); details: 1 mg/kg interferon, no carrier
Description: as §1

Row | Mean peak serum interferon concentration [1] | Molecule | Mean peak serum interferon concentration ([2]; intracolonic (IC)) | Mean peak serum interferon concentration ([2]; oral (PO))
1 | 2611±695 | O=C(O)CCCc1ccc(NC(=O)COc2ccccc2)cc1 [Compound 9] | – | –
2 | – | interferon | 79±100 | 1951±1857
